Assay results reported in patent US6849712B1, “Peptides with β1 integrin subunit dependent cell adhesion modulating activity” (Regents of the University of Minnesota, priority 1998, dated 2005).
Entries after “also recorded” stand apart in the source; their conditions may differ. Where no end group is shown, it is not given here. [ ]: non-standard residue; d: D form.

How the values were obtained:
[1] = target: α4β1 integrin (Homo sapiens, UniProt P05556+P13612); test: Inhibition of α4β1 dependent adhesion of 8A2 stimulated Ramos cells to IIICS-GST; format: cell-based; parameters: endogenous in cells; host or cells: Ramos cells; details: Ramos cells activated with mAb 8A2, preincubated with peptide, result in words
Chain of α4β1 integrin (P13612 34-1032): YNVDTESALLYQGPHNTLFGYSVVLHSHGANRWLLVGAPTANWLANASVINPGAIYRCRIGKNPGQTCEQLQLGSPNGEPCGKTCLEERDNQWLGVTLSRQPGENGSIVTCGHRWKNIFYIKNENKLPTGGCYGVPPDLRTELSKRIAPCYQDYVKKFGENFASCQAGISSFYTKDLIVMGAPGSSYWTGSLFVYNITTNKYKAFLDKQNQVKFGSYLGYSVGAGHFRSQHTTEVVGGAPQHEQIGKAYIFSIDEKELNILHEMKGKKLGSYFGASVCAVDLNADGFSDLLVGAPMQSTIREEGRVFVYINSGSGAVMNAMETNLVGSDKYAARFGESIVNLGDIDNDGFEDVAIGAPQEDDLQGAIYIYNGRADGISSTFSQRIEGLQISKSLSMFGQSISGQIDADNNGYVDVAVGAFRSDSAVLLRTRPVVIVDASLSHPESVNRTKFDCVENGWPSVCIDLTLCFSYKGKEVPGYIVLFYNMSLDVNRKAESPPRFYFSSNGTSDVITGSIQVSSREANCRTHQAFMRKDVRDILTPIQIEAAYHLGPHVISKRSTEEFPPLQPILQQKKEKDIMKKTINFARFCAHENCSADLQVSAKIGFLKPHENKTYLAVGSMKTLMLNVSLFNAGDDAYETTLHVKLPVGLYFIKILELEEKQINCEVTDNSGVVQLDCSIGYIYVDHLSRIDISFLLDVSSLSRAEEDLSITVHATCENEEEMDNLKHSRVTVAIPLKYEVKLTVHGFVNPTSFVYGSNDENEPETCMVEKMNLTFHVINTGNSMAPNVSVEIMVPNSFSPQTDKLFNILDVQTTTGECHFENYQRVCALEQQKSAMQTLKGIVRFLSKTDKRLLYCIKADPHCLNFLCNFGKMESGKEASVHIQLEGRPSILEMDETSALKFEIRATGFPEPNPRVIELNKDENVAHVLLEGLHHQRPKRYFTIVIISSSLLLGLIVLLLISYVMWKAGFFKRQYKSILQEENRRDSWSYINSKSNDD
Chain of α4β1 integrin (P05556 21-798): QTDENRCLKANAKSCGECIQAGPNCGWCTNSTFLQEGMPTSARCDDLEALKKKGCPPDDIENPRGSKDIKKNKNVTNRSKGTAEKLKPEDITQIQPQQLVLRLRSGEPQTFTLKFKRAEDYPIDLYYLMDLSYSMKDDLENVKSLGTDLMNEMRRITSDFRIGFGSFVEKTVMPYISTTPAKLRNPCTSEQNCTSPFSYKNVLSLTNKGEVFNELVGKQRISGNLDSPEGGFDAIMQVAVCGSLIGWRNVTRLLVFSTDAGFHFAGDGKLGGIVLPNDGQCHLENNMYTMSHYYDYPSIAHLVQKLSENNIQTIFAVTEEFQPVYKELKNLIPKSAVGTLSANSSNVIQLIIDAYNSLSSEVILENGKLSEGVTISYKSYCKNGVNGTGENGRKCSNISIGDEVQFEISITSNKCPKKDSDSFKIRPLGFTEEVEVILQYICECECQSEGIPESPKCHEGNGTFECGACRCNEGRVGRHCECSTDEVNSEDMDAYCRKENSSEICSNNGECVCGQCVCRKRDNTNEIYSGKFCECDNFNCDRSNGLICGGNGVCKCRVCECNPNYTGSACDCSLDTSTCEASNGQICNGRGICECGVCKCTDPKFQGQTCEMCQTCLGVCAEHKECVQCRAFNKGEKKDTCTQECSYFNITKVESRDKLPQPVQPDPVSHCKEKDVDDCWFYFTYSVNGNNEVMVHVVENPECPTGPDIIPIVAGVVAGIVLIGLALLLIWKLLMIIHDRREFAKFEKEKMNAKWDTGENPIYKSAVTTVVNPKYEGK
From the text: IIICS-GST is recombinantly produced fusion protein which contains a fragment from the type III CS region (“IIICS”) of plasma fibronectin fused to glutathione-S-transferase (“GST”). The fibronectin fragment corresponds to fibronectin amino acid residues 1961 to 2039 (sequence numbering for fibronectin as designated in U.S. Pat. No. 4,839,464) and includes the […] (SEQ ID NO:46) amino acid sequence (“CS1”; fibronectin residues 1961-1985). […] In the assay, a 96-well plate was coated with the substrate IIICS-GST. Ramos cells stimulated with the β1 activating monoclonal antibody 8A2 (“Ab 8A2”) were preincubated with one of the peptides to be evaluated for their ability to adhere to IIICS-GST.
The fusion protein can be constructed by first using PCR primers to amplify the coding sequence for residues 1961-2039 of plama fibronectin. The PCR product can be introduced into a suitable bacterial expression vector in frame with the gene for GST. The resulting vector can be transformed and expressed in a suitable host cell, such as E Coli, to produce the fusion protein. If desired, the fusion protein can be purified using a glutathione column.
A 96-well plate was coated in triplicate with […] of IIICS-GST diluted to […] in PBS containing 1 mM CaCl2, MgCl2 (“PBS/cations”) and incubated overnight at 37° C. The IIICS-GST solution was removed and the wells were blocked with 150 μ/well of PBS/cations containing 0.3% BSA for 1-2 hours at 37° C. During the assay each well contained 100 μl of Ramos cells (10,000 cells/well) with or without peptide. Ramos cells were washed 3 times in adhesion media (DMEM without phenol red containing 20 mM HEPES and 3 mg/ml BSA). Cells were counted and resuspended at 200,000 cells/ml. Concentrated Ramos cells were labeled for 20 minutes at 37° C. with 50 μg of the fluorescent label BCECF resuspended in 30 μl of dimethylsulfoxide (“DMSO”). The labeled cells were centrifuged and resuspended in adhesion media at a concentration of 200,000 cells/ml. The cells were activated with the activating Ab 8A2 at a concentration of 2 μg/ml purified IgG or 1:1000 culture supernatant.
While the cells were being labeled, inhibiting peptide dilutions were prepared. Lyophilized peptides were weighed and resuspended in adhesion media at a stock concentration of twice the maximal inhibitory concentration. If a peptide was difficult to get into solution, it was initially resuspended in 30 μl of DMSO. If a peptide needed to be suspended in DMSO, all of the eptides in that particular experiment (including the controls) were suspended in 30 μl of DMSO. […] The dose-dependent dilutions of peptides were prepared using adhesion media to dilute the stock peptide. Labeled cells were mixed with peptide dilutions for 5 minutes at 37° C. at a final concentration of 100,000 cells/ml and appropriate final peptide concentrations.
The blocking solution was removed from the 96-well plate and the cell/peptide mixture is added at 100 μl/well (10,000 cells/well) and incubated for 30 minutes at 37° C. An aliquot of standard cells/peptide (100 μl) was placed at 37° C. for quantitating adhesion. Using aspiration, non-adherent cells were removed from the plate. The standard cells were centrifuged and resuspended in […] of adhesion media. The standard cells were added to empty wells at 100, 80, 60, 40, 20 and 0 μl /well representing 100%, 80%, 60%, 40%, 20% and 0% adhesion, respectively. The plate fluorescence was read at excitation 485 and emission 530. Cell adhesion was represented as percent input cells remaining adherent and was determined by a standard curve of the fluorescence obtained with the standard cells. The experimental fluorescence readings were extrapolated from the standard curve to obtain percent adhesion.

[2] = system: peripheral blood mononuclear cells and spleen cells; details: reported, Wahl et al.; cited from earlier work
[3] = in vivo rat model, reported; cited from earlier work
[4] = target: T1, α5β1 integrin (Homo sapiens, UniProt P05556+P08648); test: Inhibition of α5β1 integrin dependent Mn+2 stimulated adhesion of K562 cells to fibronectin (FN); format: cell-based; details: for inhibition of K562 adhesion to FN at the maximal concentration tested: 0.84 mM peptide, K562 cells stimulated with 1 mM MnCl2
T1 construct: erythroleukemic cell line K562, which expresses α5β1 but not α4β1 integrin; endogenous in cells; host or cells: K562 cells
T1 sequence (P08648 42-894 limits assumed): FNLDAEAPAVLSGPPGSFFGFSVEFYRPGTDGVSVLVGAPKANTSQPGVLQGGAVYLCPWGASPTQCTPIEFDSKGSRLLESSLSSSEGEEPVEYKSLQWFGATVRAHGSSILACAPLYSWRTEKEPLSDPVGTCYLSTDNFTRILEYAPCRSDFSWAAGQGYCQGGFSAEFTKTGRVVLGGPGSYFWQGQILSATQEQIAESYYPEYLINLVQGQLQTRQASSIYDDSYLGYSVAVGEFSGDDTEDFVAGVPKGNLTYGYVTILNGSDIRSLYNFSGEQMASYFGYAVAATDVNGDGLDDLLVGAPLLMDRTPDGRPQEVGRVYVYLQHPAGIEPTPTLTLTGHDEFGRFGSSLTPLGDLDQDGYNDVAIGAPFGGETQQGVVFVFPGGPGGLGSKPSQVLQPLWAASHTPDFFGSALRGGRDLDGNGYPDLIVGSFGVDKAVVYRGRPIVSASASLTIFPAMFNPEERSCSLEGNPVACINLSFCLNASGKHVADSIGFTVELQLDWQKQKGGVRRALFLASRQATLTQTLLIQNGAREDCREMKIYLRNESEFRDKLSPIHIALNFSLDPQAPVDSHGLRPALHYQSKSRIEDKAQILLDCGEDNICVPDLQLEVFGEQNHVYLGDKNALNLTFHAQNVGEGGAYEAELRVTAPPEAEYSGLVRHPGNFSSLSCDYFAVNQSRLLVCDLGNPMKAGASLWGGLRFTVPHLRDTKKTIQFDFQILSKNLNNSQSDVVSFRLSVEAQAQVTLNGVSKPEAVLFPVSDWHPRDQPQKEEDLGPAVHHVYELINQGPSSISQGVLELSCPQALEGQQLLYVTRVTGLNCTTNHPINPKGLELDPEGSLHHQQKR
T1 sequence (P08648 895-1049 limits assumed): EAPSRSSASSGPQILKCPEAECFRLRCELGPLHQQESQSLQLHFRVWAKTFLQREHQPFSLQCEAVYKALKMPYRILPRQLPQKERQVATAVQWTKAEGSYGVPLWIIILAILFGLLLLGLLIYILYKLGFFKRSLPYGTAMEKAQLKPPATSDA
T1 sequence (P05556 21-798): as the sequence (P05556 21-798) above
Experimental: The cell adhesion assay was carried out as described above. […] Each data point represents the mean of triplicate determinations and the error bars represent the standard deviation of the mean. The solid black line represents adhesion to the negative control substrate, BSA.

[5] = system: α2β1 and α3β1 integrin; test: Inhibition of α2β1, α3β1 integrin dependent human melanoma M14#5 cell adhesion to laminin and type IV collagen; format: cell-based; details: 0.5 mg/ml peptide (0.42 mM), 30 minutes
Experimental: An experiment was conducted to examine the ability of FN-C/H V+Y (SEQ ID NO:1) to inhibit α2β1, α3β1 integrin dependent cell adhesion using an assay based on human melanoma cells (M14#5).
Laminin, type IV collagen and BSA were coated overnight in a 96 well microtiter plate at 10 μg/ml and blocked with 0.3% BSA. M14#5 cells were preincubated with 0.5 mg/ml of peptide (equivalent to 0.42 mM FN-C/H V and scrambled FN-C/H V and 0.17 mM CSI) and allowed to adhere to substrates for 30 minutes.

[6] = target: α5β1 integrin (UniProt P08648 42-1049; P05556 21-798); test: cell-based or functional assay
Chain of α5β1 integrin (UniProt P08648 42-1049; P05556 21-798) (P08648 42-1049, chain 1 of 2): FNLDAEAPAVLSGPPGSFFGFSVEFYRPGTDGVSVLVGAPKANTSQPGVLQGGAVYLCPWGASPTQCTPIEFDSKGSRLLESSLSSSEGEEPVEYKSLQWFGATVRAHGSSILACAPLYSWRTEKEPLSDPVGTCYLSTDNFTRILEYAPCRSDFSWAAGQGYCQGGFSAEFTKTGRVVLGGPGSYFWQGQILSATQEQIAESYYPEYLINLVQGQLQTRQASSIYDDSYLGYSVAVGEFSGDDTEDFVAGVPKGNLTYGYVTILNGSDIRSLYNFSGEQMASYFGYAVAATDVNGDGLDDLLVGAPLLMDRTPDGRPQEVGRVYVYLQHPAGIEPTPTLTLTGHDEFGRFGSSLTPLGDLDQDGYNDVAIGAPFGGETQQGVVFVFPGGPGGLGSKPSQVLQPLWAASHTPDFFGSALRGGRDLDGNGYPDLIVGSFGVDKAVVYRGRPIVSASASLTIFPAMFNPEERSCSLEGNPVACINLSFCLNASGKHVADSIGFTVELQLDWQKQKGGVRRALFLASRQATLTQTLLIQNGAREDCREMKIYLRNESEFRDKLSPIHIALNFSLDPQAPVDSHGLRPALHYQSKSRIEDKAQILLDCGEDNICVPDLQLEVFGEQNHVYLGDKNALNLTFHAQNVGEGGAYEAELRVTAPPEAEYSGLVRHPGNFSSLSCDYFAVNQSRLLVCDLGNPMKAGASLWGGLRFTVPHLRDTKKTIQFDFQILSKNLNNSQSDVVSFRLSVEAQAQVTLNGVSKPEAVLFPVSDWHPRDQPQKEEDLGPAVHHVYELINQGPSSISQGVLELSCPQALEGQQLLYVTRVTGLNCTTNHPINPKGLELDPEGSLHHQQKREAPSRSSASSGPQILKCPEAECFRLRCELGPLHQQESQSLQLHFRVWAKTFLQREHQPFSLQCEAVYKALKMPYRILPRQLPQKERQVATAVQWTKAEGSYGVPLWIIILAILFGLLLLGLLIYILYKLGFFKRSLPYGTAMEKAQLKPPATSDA
Chain of α5β1 integrin (UniProt P08648 42-1049; P05556 21-798) (P05556 21-798, chain 2 of 2): as the sequence (P05556 21-798) above

Row | Molecule | inhibition of adhesion of 8A2 stimulated Ramos cells to IIICS-GST [1] | also measured
1 | WQPPRARIW (listed as Homo sapiens) [SEQ ID NO:33] | comparable to that of FN C/H V+Y | –
2 | WQPPRARLY (listed as Homo sapiens) [SEQ ID NO:28] | comparable to that of FN C/H V+Y | –
3 | RARITGYIY (listed as Homo sapiens) [SEQ ID NO:13] | exhibit the capability of inhibiting β1 integrin subunit dependent adhesion; also recorded: exhibited α4β1 integrin dependent cell adhesion inhibition | –
4 | WQPPRARYI (listed as Homo sapiens) [SEQ ID NO:36] | inactive | –
5 | RARIY (listed as Homo sapiens) [SEQ ID NO:25] | comparable on an equimolar basis to that of the 9 residue peptide, Y-tagged FN C/H V | –
6 | ARITGYIIY (listed as Homo sapiens) [SEQ ID NO:14] | exhibit the capability of inhibiting β1 integrin subunit dependent adhesion; also recorded: most active peptide; also recorded: inhibited cell adhesion | –
7 | all D-form of FN-C/H V+Y: all D-form of FN-C/H V+Y (SEQ ID NO:1) ([dW][dQ][dP][dP][dR][dA][dR][dI][dY]; listed as Homo sapiens) | Neither of these two compounds inhibited Ramos cell binding | inhibition of adhesion of 8A2 stimulated Ramos cells to IIICS-GST ([1]; listed as D-amino acid FN-C/H V−Y): unable to inhibit adhesion
8 | WAPPRARIY (listed as Homo sapiens) [SEQ ID NO:4] | capable of inhibiting β1 integrin dependent cell adhesion | –
9 | AQPPRARIY (listed as Homo sapiens) [SEQ ID NO:3] | capable of inhibiting β1 integrin dependent cell adhesion | –
10 | ARIY (listed as Homo sapiens) [SEQ ID NO:26] | comparable on an equimolar basis to that of Y-tagged FN C/H V | –
11 | SPPRRARVTY (listed as Homo sapiens) [FN-C/H IV+Y] | – | inhibition of leukocyte adhesion to fibronectin in vitro [2]: inhibit leukocyte adhesion to fibronectin in vitro
12 | WQPPRARI (listed as Homo sapiens) [SEQ ID NO:37, reference compound] | also inactive | –
13 | KNNQKSEPLIGR-KKTY (KNNQKSEPLIGRKKTY; listed as Homo sapiens) [FN-C/H II+Y] | – | anti-inflammatory properties [3]: exhibit anti-inflammatory properties; inhibition of leukocyte adhesion to fibronectin in vitro [2]: inhibit leukocyte adhesion to fibronectin in vitro
14 | PPRARIY (listed as Homo sapiens) [SEQ ID NO:23] | also exhibited α4β1 integrin dependent cell adhesion inhibition activity | –
15 | N=C(N)NCCC[C@H](N)C(=O)NCC(=O)N[C@@H](CC(=O)O)C(=O)O [RGD, reference compound] | – | inhibition of K562 adhesion to FN at the maximal concentration tested [4]: completely inhibited
16 | RPQIPWARY (listed as Homo sapiens) [SEQ ID NO:2] | did not inhibit cell adhesion | inhibition of M14#5 cell adhesion to laminin ([5]; laminin coated substrate): has no effect; inhibition of M14#5 cell adhesion to type IV collagen ([5]; type IV collagen coated substrate): has no effect

Row | Molecule | inhibition of adhesion of 8A2 stimulated Ramos cells to IIICS-GST [1] | also measured
17 | WQPPRARIF (listed as Homo sapiens) [SEQ ID NO:32] | comparable to that of FN C/H V+Y | –
18 | WQPPRAAIY (listed as Homo sapiens) [SEQ ID NO:8] | capable of inhibiting β1 integrin dependent cell adhesion | –
19 | YIRARPPQW (not fully specified (some residues); listed as Homo sapiens) [SEQ ID NO:40] | – | inhibition of adhesion of 8A2 stimulated Ramos cells to IIICS-GST ([1]; listed as retro inverso FN-C/H V+Y): Neither of these two compounds inhibited Ramos cell binding; inhibition of adhesion of 8A2 stimulated Ramos cells to IIICS-GST ([1]; listed as retro-inverso FN-C/H V−Y): unable to inhibit adhesion
20 | WQPPDADIY (listed as Homo sapiens) [SEQ ID NO:38] | inhibits the 8A2 stimulated adhesion of Ramos cells at least as strongly as FN-C/H V+Y; also recorded: does not alter the ability of the peptide to inhibit β1 integrin subunit dependent adhesion | –
21 | WQPPAARIY (listed as Homo sapiens) [SEQ ID NO:7] | capable of inhibiting β1 integrin dependent cell adhesion | –
22 | RPAPQRWIY (listed as Homo sapiens) [SEQ ID NO:20] | exhibit the capability of inhibiting β1 integrin subunit dependent adhesion; also recorded: inhibited cell adhesion | –
23 | WQPPRARVY (listed as Homo sapiens) [SEQ ID NO:29] | comparable to that of FN C/H V+Y | –
24 | WQPIYPRAR (listed as Homo sapiens) [SEQ ID NO:35] | inactive | –
25 | PRQAWRPIY (listed as Homo sapiens) [SEQ ID NO:18] | exhibit the capability of inhibiting β1 integrin subunit dependent adhesion; also recorded: inhibited cell adhesion | –
26 | QPPRARIY (listed as Homo sapiens) [SEQ ID NO:22] | also exhibited α4β1 integrin dependent cell adhesion inhibition activity | –
27 | IYWQPPRAR (listed as Homo sapiens) [SEQ ID NO:34] | inactive | –
28 | PRARI (listed as Homo sapiens) [SEQ ID NO:39] | not PRARI was able to inhibit | –
29 | PRARIY-OH [SEQ ID NO:24, PRARIY] | comparable on an equimolar basis to that of the 9 residue peptide, Y-tagged FN C/H V; also recorded: able to inhibit | inhibition of K562 adhesion to FN at the maximal concentration tested [4]: completely inhibited; IC50 ([4]; K562 cells stimulated with 1 mM MnCl2, adhesion to FN, read-out: half-maximal inhibitory concentration): ~200 µM
30 | PRARIY | – | half-maximal inhibitory concentration (K562 adhesion to FN) [6]: ~0.2 mM
31 | RIY | – | half-maximal inhibitory concentration (K562 adhesion to FN) [6]: ~0.2 mM
32 | WQPPRARIY [FN-C/H V+Y] | – | half-maximal inhibitory concentration (K562 adhesion to FN) [6]: 0.2 mM
